In the nanobody polyreactivity screen of Harvey et al. (2022):

Test: yeast display, Sf9 membrane polyspecificity reagent, FACS + sequencing; frameworks hold sequencing errors
How it was run: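 Synthetic nanobody libraries on Saccharomyces cerevisiae BJ5465 were galactose-induced for 36–48 hours, stained 1 hour at 4 °C with 10% biotinylated, detergent-solubilized Sf9 membrane reagent and enriched on streptavidin microbeads. FACS then separated cells into low and high (top ~1%) gates by anti-HA (expression) and streptavidin (reagent binding) fluorescence. Genes were colony-PCR amplified, MiSeq 2 × 250 sequenced and CDR-length filtered. A clone's polyreactivity label is that of its gate of origin.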

Sequence | polyreactivity (PSR sort gate)
QVQLVESGGGLVQAGGSLRLSCAASGLIVQVYDMGWYRQAPGKEMELVAAISSGSNTNYADSVKGRFTISRDNAKNTVYLLMNSLKPEDTAVYYCAASWGYGALTPDMGYWGQGTQVTVSA | low polyreactivity
QVQLVESGGALVQAGGSLRLSCAASGFIFGSYVMGWYRQAPGKERELVAAISQIGGRTYYADSVKGRFTISRDNAKKTVYLQMNSLKPEDTAVYYCAARWAGYRYVGGYWRDDMDYWGQGTQVTVSS | high polyreactivity
QVQLVESGGGLVQAGGSLRLSCAASGITLRRNAMGWYRQATGKERELVAAISWSGGRTYYADSVKGRFTISRDNAKNTVYLQMNSLKPEDTAVYYCAARGYPLTAIDYWGQGTQVTVSS | high polyreactivity
QVQLVESGGGLVQAGGSLRCSCAASGRTFGTYAMGWYRQAPGKERELVAAISTRDGSTYYADSVKGRYTISRDTAKNTVYLQMNSLKPEDTAVYYCNAVVRYYDWGYWDYDYWGQGTQVTVSS | low polyreactivity
QVQLEESGGGLVQAGGSLRLSCAASGSIFSTYAMGWYRQAPGKERELVSAINSGDSTSYADSVKGRFTISRDNAKNTVYLQRNSLKPEDTAVYYCAAKTGGYWYLRRTGRYESWGQGTQVTVSS | low polyreactivity
QVQLVESGGGLVQAGGSLRFSCAASGSTFVYYAMGWYRQAPGKERELVAAITFGGGSTYYADSVKGRFTISRDNAKNTVYLQMNSLKPEDTAVYYCAVYWDDGSAYPPLIVGYDYWGQGTQVTVSS | low polyreactivity
QVQLEESGGGLVQAGGSLRLSCAASGLIFQVYALGWYRQAPGKERELVASISWNGGSTYYADSVKGRFTISRDNAKNTVYLQMNSLKPEDTAVYYCNKYPVSLWYYSKDYTYDYWGQGTQVTVSS | low polyreactivity
QVQLVESGGGLVQAGGSLRLSCAASGNTSGHNAMGWYRQAPGKERELVADIRTGDSTNYADSVKGRFTISRDNAKNTVYLQMNSLKPEDTAVYYCAADSAYDVTSYGYWGQGTQVTVSS | low polyreactivity
KVQLVESGGGLVQAGGSLRLSCAASGRTFWYYAMGWYRLSPGKERELVAVITSVSSTYYADSVKGRFTISRDNAKNTVYLQMNSLKPEDTAVYYCAVGRTYRRYSAASYNYWGQGTQVTVSS | high polyreactivity
QVQLQESGGGLVQAGGSLRLSCAASGTISDRAGMGWYRQAPAKNAIVATIDRGTNTNYADSVKGRFTISRDNAKNPVYLKMNSLKPEDTAVYNWAADGRYYIYLDYWGQGTQVTVSS | low polyreactivity
QVQLQESGGVLVQAGGSLRLSCAASGNILDADIMGWYRQAPGKERELVASITDGGSTNYADSVKGRFTISRDNAKNTVYLQMNSLKPEDTAVYYCAAIAYPDIPTYFDYDSEYFYWGQGTQVTVSS | low polyreactivity
QVQLVESGGGLVQAGGSLRLSCAASGLTFYYYAMGWYRQAPGKERELVAAITWSGASTYYADSVKGRFTISRDNAKNTVYLQMNSLKPEDTAVYYCNARVWGGVEFGYWGQGTQVTVSS | high polyreactivity
QVQLVESGGGLVQAGGSLRLSCADSGFIFGNYAMGWYRQAPGKERELVAGISGSGGSTYYADSVKGRFTISRDNAKNTVYLQMNSLKPEDTAVYYCNAGWHPSQGRFEYWGQGTQVTVSS | high polyreactivity
QVQLEESGGGLVQAGGSLRLSCAASGSIFYYNAMGWYRQAPGTERELVAAIRRSGGRTYYADSVKGRFTISRDNAKNSVYLQMNSLKPEDTAVYYCAAVHYDRVTCQVDNDYWGQGTQVTVSS | high polyreactivity
QVQLVESGVGLVQAGGSLRLSCAASGFIFWLYAMGWYRQAPGKERELVAGITRGGGSTYYADSVKRRFTISRDNAKNTVYLQMNSLKPEDTAVYYCAADAWSSYLDRPFDYWGQGTQVTVSS | high polyreactivity
QVQLQESGGGLVQAGGSLRLSCAASGYIILQYAMGWYRPAPGKERELVASIARGTSTYYADSVKGRFTISRDNAKNTVYLQMNSLKPEDTAVYYCAVIYSWGLWHDYWGQGTQVTVSS | high polyreactivity
QVQLVESGGGLVQAGGSLRLSCAASGRIFPGNTMGWYRQAPGKERELVAAISSSTGNTYYADSVKGRFTISRDNAKNTVYLQMNSLKPEDTAVYYCAARTRQISIVGYNYWGQGTQVTVSS | high polyreactivity
QVQLVESGGGLVQAGCSLRLSCASSGRIFYGNAMGWYRQAPGKERELVAAISKSGASTYYADSVKGRFTISRDNAKNTVYLQMNSLKPEDTAVYYCAAETPRRKYNYWGQGSQVTVSS | high polyreactivity
QVQLVESVGGLVQAGGSLRLSCAASGSTFYSYSMGWYRQEPGKERELVAAISWNGGSTYYADSVKGRFTISRDNAKNTVYFQMNSLKPEVTAVYYCAARGGYPYWRYYRFYKMDYWGQGTQVTVSS | low polyreactivity
QVHLVESGGGLVQAGGSLRLSCAASGSILQRNAMGWYRQAPGKERELVASITFSAGRTYYADSVKGRFTISRDNAKNTVYLQMKSLKPEDTAVYYCAADPYSYGARGARGDYWGQGTQVSVSS | low polyreactivity
QVQLVESGGGLVQAGGSLRLSCAASGRTFYYYDMGWYRQAPGKERELVAAIRRSGGSTYYADSVKGRFTISRDNAKNTVYLQMNSLKPEDTAVYYCAAGRRYSGSYDYRGQGTQVTVSS | high polyreactivity
QVQLQESGRRPGAAGGSPRMSCAASGNIFWVAVMGRYRQAPGKERELVASIGFGCTTYYADSVKCRFTISRDNAKNTVYLQMISLKPEDTAVYYCAAPLYDWGELDYWGQGTQVPVSS | low polyreactivity
